Ends that are not written are not given here.
Legend:
[1] = molecular target: T1, WT1STHV biotin labeled HCV core peptide (hepatitis C virus, biotin labeled); experiment: EIA; Ab 62.5 ng/mL captured on anti-mouse Fc; bt-peptide 500 ng/mL
T1 peptide: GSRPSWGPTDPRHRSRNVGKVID

[2] = molecular target: T2, Mut6T110S biotin labeled HCV core peptide (hepatitis C virus); experiment: as above
[3] = molecular target: T3, C113T109N biotin labeled HCV core peptide (hepatitis C virus, also: biotin labeled, position not given here); experiment: as above
T3 peptide: RGSRPSWGPND

[4] = molecular target: T4, Mut1T110N biotin labeled HCV core peptide (hepatitis C virus, biotin labeled); experiment: as above
T4 peptide: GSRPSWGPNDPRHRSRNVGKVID

[5] = molecular target: T5, C113WT biotin labeled HCV core peptide (hepatitis C virus, also: biotin labeled, position not given here); experiment: as above
T5 peptide: RGSRPSWGPTD

[6] = molecular target: T1, WT1STHV biotin labeled HCV core peptide; experiment: EIA; Ab 125 ng/mL captured on anti-mouse Fc; bt-peptide 500 ng/mL
[7] = molecular target: T2, Mut6T110S biotin labeled HCV core …; experiment: as above
[8] = molecular target: T3, C113T109N biotin labeled HCV core …; experiment: as above
[9] = molecular target: T4, Mut1T110N biotin labeled HCV core …; experiment: as above
[10] = molecular target: T5, C113WT biotin labeled HCV core peptide; experiment: as above
[11] = molecular target: T1, WT1STHV biotin labeled HCV core peptide; experiment: EIA; Ab 15.625 ng/mL captured on anti-mouse Fc; bt-peptide 500 ng/mL
[12] = molecular target: T2, Mut6T110S biotin labeled HCV core …; experiment: as above
[13] = molecular target: T3, C113T109N biotin labeled HCV core …; experiment: as above
[14] = molecular target: T4, Mut1T110N biotin labeled HCV core …; experiment: as above
[15] = molecular target: T5, C113WT biotin labeled HCV core peptide; experiment: as above
[16] = molecular target: T1, WT1STHV biotin labeled HCV core peptide; experiment: EIA; Ab 250 ng/mL captured on anti-mouse Fc; bt-peptide 500 ng/mL
[17] = molecular target: T5, C113WT biotin labeled HCV core peptide; experiment: as above
[18] = molecular target: T1, WT1STHV biotin labeled HCV core peptide; experiment: EIA; Ab 1.953 ng/mL captured on anti-mouse Fc; bt-peptide 500 ng/mL
[19] = molecular target: T2, Mut6T110S biotin labeled HCV core …; experiment: as above
[20] = molecular target: T3, C113T109N biotin labeled HCV core …; experiment: as above
[21] = molecular target: T4, Mut1T110N biotin labeled HCV core …; experiment: as above
[22] = molecular target: T5, C113WT biotin labeled HCV core peptide; experiment: as above
[23] = molecular target: T1, WT1STHV biotin labeled HCV core peptide; experiment: EIA; Ab 0.977 ng/mL captured on anti-mouse Fc; bt-peptide 500 ng/mL
[24] = molecular target: T2, Mut6T110S biotin labeled HCV core …; experiment: as above
[25] = molecular target: T3, C113T109N biotin labeled HCV core …; experiment: as above
[26] = molecular target: T4, Mut1T110N biotin labeled HCV core …; experiment: as above
[27] = molecular target: T5, C113WT biotin labeled HCV core peptide; experiment: as above

B1: HCV Neo4 monoclonal antibody (antibody, V domains shown)
VH: QIQLKESGPAVIKPSQSLSLTCIVSGFSITSSVYCWQWIRQPPGKGLEWMGRICYDGSVDYSPSITSRGTISRDTSLNKVFFQLSSVTNEDTAMYYCSRENHIDYYDTTYPSFDVWGAGTTVTVSS
VL: DIVLTQSPASLIVSLGQRATISCRASKSVNEYGYTYMHWYQQKPGLPPKLLIYLASNLDSGVPARFSGSGSGTDFTLNIHPVEEEDAATYYCQHSRELPYTFGGGTKLEIKR
**Q.** For B1, which “signal at 492 nm” value [1] is on record?
**A.** 1.85 OD 492 nm

**Q.** What about the “signal at 492 nm” value [2] of the same binder?
**A.** 1.11 OD 492 nm

**Q.** What about the “signal at 492 nm” value [3] of the same binder?
**A.** 0.111 OD 492 nm

**Q.** And the “signal at 492 nm” value [4]?
**A.** 0.139 OD 492 nm

**Q.** And the “signal at 492 nm” value [5]?
**A.** 0.0626 OD 492 nm

**Q.** What about the “signal at 492 nm” value [6] of the same binder?
**A.** 1.93 OD 492 nm

**Q.** What about the “signal at 492 nm” value [7] of the same binder?
**A.** 1.27 OD 492 nm

**Q.** What about the “signal at 492 nm” value [8] of the same binder?
**A.** 0.0858 OD 492 nm

**Q.** What about the “signal at 492 nm” value [9] of the same binder?
**A.** 0.204 OD 492 nm

**Q.** And the “signal at 492 nm” value [10]?
**A.** 0.0599 OD 492 nm

**Q.** And the “signal at 492 nm” value [11]?
**A.** 1.42 OD 492 nm

**Q.** And the “signal at 492 nm” value [12]?
**A.** 0.25 OD 492 nm

**Q.** What about the “signal at 492 nm” value [13] of the same binder?
**A.** 0.0736 OD 492 nm

**Q.** And the “signal at 492 nm” value [14]?
**A.** 0.0771 OD 492 nm

**Q.** And the “signal at 492 nm” value [15]?
**A.** 0.0697 OD 492 nm

**Q.** What about the “signal at 492 nm” value [16] of the same binder?
**A.** 1.99 OD 492 nm

**Q.** And the “signal at 492 nm” value [17]?
**A.** 0.0607 OD 492 nm

**Q.** What about the “signal at 492 nm” value [18] of the same binder?
**A.** 0.409 OD 492 nm

**Q.** What about the “signal at 492 nm” value [19] of the same binder?
**A.** 0.0717 OD 492 nm

**Q.** And the “signal at 492 nm” value [20]?
**A.** 0.0853 OD 492 nm

**Q.** And the “signal at 492 nm” value [21]?
**A.** 0.0728 OD 492 nm

**Q.** And the “signal at 492 nm” value [22]?
**A.** 0.0765 OD 492 nm

**Q.** What about the “signal at 492 nm” value [23] of the same binder?
**A.** 0.22 OD 492 nm

**Q.** And the “signal at 492 nm” value [24]?
**A.** 0.0644 OD 492 nm

**Q.** What about the “signal at 492 nm” value [25] of the same binder?
**A.** 0.0784 OD 492 nm

**Q.** What about the “signal at 492 nm” value [26] of the same binder?
**A.** 0.0619 OD 492 nm

**Q.** And the “signal at 492 nm” value [27]?
**A.** 0.0584 OD 492 nm

— patent publication US20170052184A1 (published 2017)
